From patent US20240083999A1 (TRUSTEES OF TUFTS COLLEGE, published 2024) come the findings set out here.

Assay [1] has as its target T1, human interleukin 6 (hIL-6) (human, UniProt P05231 30-212). Briefly: cell-based or functional assay.
Assay [2] deals with T1, human interleukin 6 (hIL-6). Briefly: dilution ELISA, plate-coated hIL-6. From the text: Based on sequence analysis, five clonally-independent families of the anti-hIL-6 VHHs, i.e., having sequence homology derived from independent B cell origins, were obtained. One family represented the majority of VHH family members that strongly bound to hIL-6 as determined by ELISA; therefore, multiple variants of this family were also sequenced. The anti-hIL-6 VHH coding DNA of selected VHHs was re-cloned into E. coli expression vectors and the anti-hIL-6 VHH proteins were expressed and purified using standard methods. The purified anti-hIL-6 VHHs were subjected to dilution ELISA analysis to assess their apparent affinities for binding to hIL-6. […] (See, e.g., Mukherjee, J., et al., 2012 PLoS ONE, 7, e299411). The EC₅₀ value of JYK-D12 for binding hTL-6 as determined by ELISA was about 0.4 nM.
Maxisorp ELISA plates (Nunc; Thermo Fisher USA) coated with recombinantly produced hIL-6 protein (0.5-5 μg/ml) overnight at 4° C. were used for immuno-binding assays (ELISA). Plates were washed 3 times with 1×PBS+0.1% Tween, followed by washing 3 times with 1×PBS. Washed plates were blocked (4-5% non-fat dry milk in 1×PBS+0.1% Tween) for 1 hour at room temperature (RT) with rocking. Serially diluted (1:5) hIL-6 VHH binding molecules targeting hIL-6, diluted in blocking solution, were incubated for 1 hour at RT with rocking and washed as above. […]
For orientation: In an ELISA, binding on a coated surface is turned into a signal by an enzyme label.

Assay [3] has as its target T2, mouse interleukin 6 (mIL-6) (mouse, UniProt P08505 25-211).
T2 construct: the whole entry is named; also called mouse IL-6; mouse IL6
T2 sequence: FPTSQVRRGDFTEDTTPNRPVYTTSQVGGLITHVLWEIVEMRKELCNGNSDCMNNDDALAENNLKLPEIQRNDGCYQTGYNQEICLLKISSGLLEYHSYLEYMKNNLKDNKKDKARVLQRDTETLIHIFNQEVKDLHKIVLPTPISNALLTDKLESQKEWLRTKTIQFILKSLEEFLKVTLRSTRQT
Nature of the assay: told from an in vivo STAT3 phosphorylation Western blot (FIG. 7), not a direct binding assay. On the procedure:
Experiments were conducted to determine whether the representative anti-hIL-6 VHH antibody cross-reacted with mouse IL-6 in vivo. In this experiment, one group of C57BL/6 mice was injected intraperitoneally with 1 μg of mouse IL-6 (mIL-6) in PBS; another group of C57BL/6 mice was injected with 1 μg of mouse IL-6 (mIL-6) plus 0.4 μg anti-hIL-6 VHH antibody. The animals were euthanized 30 minutes post-injection; their livers were isolated; and protein was extracted. Western blot analyses were carried out to assess the phosphorylation of STAT3 using P-STAT3 Y705 antibody (1:1,000 dilution) and STAT3 antibody (1:2,000 dilution), (Cell Signaling Technology (CST), Danvers, MA). The results of the Western blot analysis to assess the cross-reactivity of the anti-hIL-6 VHH antibody in mIL-6-induced hepatic STAT activation are shown in FIG. 7.
(In general: In western blotting, separated proteins are transferred to a membrane and probed.)

B1: hIL-6-binding VHH JYK-A9 (Trx/JYK-A9/E) (VHH, not shown: large carriers)
VHH: QVQLVESGGGLVQAGDSLTLSCAASGRPFSSFAMGWFRQAPGKEREFVAAITWSRGTTHYADSVKGRFTISGDNAKNTVFLQMNSLKPEDTAVYYCAAADGWKVVSTASPAYDYWGQGTQVTVSS
For B1, the “complete neutralization, 7TD1 cell proliferation (neutralization) assay” value (from here on “complete neutralization”) in assay [1] is 2 µg/mL.

B2: hIL-6-binding VHH JYK-H9 (Trx/JYK-H9/E) (VHH, not shown: large carriers)
VHH: QLQLVETGGGLVQPGGSLRLSCAASGFTLDYYAIGWFRQAPGKEREGVSCLSSSDRSTYYVDSVKGRFTISRDDDKNTAYLQMNSLKPEDTATYYCAAGTWDLKWGYNISACVGSYEYDYWGQGTQVTVSS
As to B2, the “complete neutralization” value in assay [1] is 0.0027 µg/mL.

B3: hIL-6-binding VHH JYK-D12 (Trx/JYK-D12/E) (VHH)
VHH: QLQLVESGGGLVQPGGSLGLSCAASGFTLAYYGIGWFRQAPGKEREGVACISSSDLSTYYADSVKGRFTISRDNAKDTVYLQMNSLKPEDTAVYYCAAGTWDLKFGYSRSNCVRSYEYDYWGQGTQVTVSS
notes: Expressed in E. coli as Trx/VHH/E fusion; also called JYK-D12 sh.ab1; expression vector JYR-3; not shown: Trx fusion partner of the construct Trx/JYK-D12/E
The EC50 is the midpoint of the concentration-response curve. Higher therefore signals lower potency in that assay. In assay [2], B3 registered an EC50 of about 0.4 nM. Also, in assay [1], the “ED50, 7TD1 cell proliferation (neutralization) assay” value was under 0.3 ng/mL and the “complete neutralization” value is 0.0009 µg/mL.

B4: JYK-D12/JYK-D12 homodimer (VHH)
chain: QVQLVESGGGLVQPGGSLGLSCAASGFTLAYYGIGWFRQAPGKEREGVACISSSDLSTYYADSVKGRFTISRDNAKDTVYLQMNSLKPEDTAVYYCAAGTWDLKFGYSRSNCVRSYEYDYWGQGTQVTVSSGGGGSGGGGSGGGGSQVQLVESGGGLVQPGGSLGLSCAASGFTLAYYGIGWFRQAPGKEREGVACISSSDLSTYYADSVKGRFTISRDNAKDTVYLQMNSLKPEDTAVYYCAAGTWDLKFGYSRSNCVRSYEYDYWGQGTQVTVSS
notes: One polypeptide with two JYK-D12 units; also called VCR-108
Consider B4, for which the “effective dose against Tocilizumab, in vivo neutralization assay” value in assay [1] worked out at 1000 fold. In addition, the binding result in assay [3] is listed as “binds”.

B5: hIL-6-binding VHH JYK-A1 (Trx/JYK-A1/E) (VHH, not shown: large carriers)
VHH: QLQLAETGGGLVQPGGSLRLSCAASGFTLDYYAVGWFRQAPGKEREGISCISSSDLKTYYADSVKGRFTISRDYAKSTVSLQMNSLKPEDTGVYYCAAGTWDLKFGYNISACVGSYEYDYWDQGTQVTVSS
As for B5, the “complete neutralization” value in assay [1] came to 0.0247 µg/mL.
